For test [1], the target named is T1, His6–Scs2(1–127) (Schizosaccharomyces pombe (strain 972 / …, UniProt O60119)).
T1 chain: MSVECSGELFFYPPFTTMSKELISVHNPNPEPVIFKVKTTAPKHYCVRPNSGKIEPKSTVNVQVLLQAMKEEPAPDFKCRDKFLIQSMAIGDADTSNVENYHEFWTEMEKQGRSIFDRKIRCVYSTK
Nature of the test: pull-down (bead-bound His6-Scs2, Coomassie SDS-PAGE).

In test [2] the target is T2, His6–Scs2(1–127) (S. pombe, UniProt O60119 1-127).
T2 construct: Scs2 (VAMP-associated protein, VAP), S. pombe, residues 1-127 (MSP domain), amplified from genomic DNA and cloned into pET15b; Cloned into the NdeI and BamHI sites of pET15b; also called Scs2 MSP domain; His-tagged version of the Scs2 MSP domain
T2 sequence (looked up): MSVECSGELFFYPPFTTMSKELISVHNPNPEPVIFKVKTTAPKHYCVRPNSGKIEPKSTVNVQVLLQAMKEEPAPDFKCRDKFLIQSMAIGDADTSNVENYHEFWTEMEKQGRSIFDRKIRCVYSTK
Description: pull-down; bead-bound His6–Scs2(1–127) (2–3 µg) incubated with 10 µg GST or GST–Duc1(351–380) in 500 µl 20 mM Tris-HCl pH 7.4, 150 mM NaCl, 0.1% NP-40, 30 min at 4°C; three washes; SDS-PAGE, Coomassie blue. Conditions: both partners purified.

For the molecule GKDVYKHGISNVPDDENEDDLQRYFTALEM (domain or fragment, S. pombe, UniProt O74504 351-380, looked up) [GST–Duc1(351–380)], the binding result in the test with His6–Scs2(1–127) [1] and with His6–Scs2(1–127) [2] was “binds” each time.

(Values after article PMC11449445, “Fission yeast Duc1 links to ER–PM contact sites and influences PM lipid composition and cytokinetic ring anchoring” (Journal of Cell Science, 2024).)
